T1: FcγRIIb (human, UniProt P31994 43-217)
T1 construct: extracellular domain; also called FcgRIIb; 2b; not shown: His tag at the C terminus
T1 sequence (looked up): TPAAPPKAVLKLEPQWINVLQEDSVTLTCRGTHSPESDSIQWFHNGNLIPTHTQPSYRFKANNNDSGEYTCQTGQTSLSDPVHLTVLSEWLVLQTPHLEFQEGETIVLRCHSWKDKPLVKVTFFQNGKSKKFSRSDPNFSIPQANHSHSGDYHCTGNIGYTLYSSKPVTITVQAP

T2: FcγRIIb extracellular domain with C-terminal His tag (human, UniProt P31994 43-217)
T2 construct: extracellular domain; also called FcgRIIb; 2b; not shown: His tag at the C terminus
T2 sequence (looked up): T1 sequence (looked up)

B1: GpH7-A5/GpH7-B3 variant A327_18N/GpL16-k0 (antibody, human IgG1, kappa)
heavy 1: not shown
heavy 2: not shown
light: DIVMTQSPLSLPVTPGEPASISCQASESLVHSNRNTYLHWYLQKPGQSPQLLIYKVSNRFSGVPDRFSGSGSGTDFTLKISRVEAEDVGVYYCSQNTHVPPTFGQGTKVEIERTVAAPSVFIFPPSDEQLKSGTASVVCLLNNFYPREAKVQWKVDNALQSGNSQESVTEQDSKDSTYSLSSTLTLSKADYEKHKVYACEVTHQGLSSPVTKSFNRGEC
notes: heterodimerized IgG1; alteration in the GpH7-B3 H chain only; also called He Ab
B2: GpH7-A5/GpH7-B3 variant N325_09D/GpL16-k0 (antibody, human IgG1, kappa)
heavy 1: not shown
heavy 2: not shown
light: B1 light
notes: as for B1
B3: GpH7-A5/GpH7-B3 variant P331_04F/GpL16-k0 (antibody, human IgG1, kappa)
heavy 1: not shown
heavy 2: not shown
light: B1 light
notes: as for B1
B4: GpH7-A5/GpH7-B3 variant A327_01G/GpL16-k0 (antibody, human IgG1, kappa)
heavy 1: not shown
heavy 2: not shown
light: B1 light
notes: Heterodimerized anti-glypican-3 IgG1; the substitution stands in the GpH7-B3 chain only; also called He Ab
B5: GpH7-A5/GpH7-B3 variant H268_01G/GpL16-k0 (antibody, human IgG1, kappa)
heavy 1: not shown
heavy 2: not shown
light: B1 light
notes: as for B4
B6: GpH7-A5/GpH7-B3 variant H268_03V/GpL16-k0 (antibody, human IgG1, kappa)
heavy 1: not shown
heavy 2: not shown
light: B1 light
notes: as for B4
B7: GpH7-A5/GpH7-B3 variant H268_05P/GpL16-k0 (antibody, human IgG1, kappa)
heavy 1: not shown
heavy 2: not shown
light: B1 light
notes: as for B4
B8: GpH7-A5/GpH7-B3 variant H268_15Y/GpL16-k0 (antibody, human IgG1, kappa)
heavy 1: not shown
heavy 2: not shown
light: B1 light
notes: as for B4
B9: GpH7-A5/GpH7-B3 variant H268_20W/GpL16-k0 (antibody, human IgG1, kappa)
heavy 1: not shown
heavy 2: not shown
light: B1 light
notes: as for B4
B10: GpH7-A5/GpH7-B3 variant K326_16H/GpL16-k0 (antibody, human IgG1, kappa)
heavy 1: not shown
heavy 2: not shown
light: B1 light
notes: as for B4
B11: GpH7-A5/GpH7-B3 variant K326_20W/GpL16-k0 (antibody, human IgG1, kappa)
heavy 1: not shown
heavy 2: not shown
light: B1 light
notes: as for B4
B12: GpH7-A5/GpH7-B3 variant N325_01G/GpL16-k0 (antibody, human IgG1, kappa)
heavy 1: not shown
heavy 2: not shown
light: B1 light
notes: as for B4
B13: GpH7-A5/GpH7-B3 variant P271_08L/GpL16-k0 (antibody, human IgG1, kappa)
heavy 1: not shown
heavy 2: not shown
light: B1 light
notes: as for B4
B14: GpH7-A5/GpH7-B3 variant P271_09D/GpL16-k0 (antibody, human IgG1, kappa)
heavy 1: not shown
heavy 2: not shown
light: B1 light
notes: as for B4
B15: GpH7-A5/GpH7-B3 variant P271_10E/GpL16-k0 (antibody, human IgG1, kappa)
heavy 1: not shown
heavy 2: not shown
light: B1 light
notes: as for B4
B16: GpH7-A5/GpH7-B3 variant S267_14T/GpL16-k0 (antibody, human IgG1, kappa)
heavy 1: not shown
heavy 2: not shown
light: B1 light
notes: as for B4
B17: GpH7-A5/GpH7-B3 variant S267_19Q/GpL16-k0 (antibody, human IgG1, kappa)
heavy 1: not shown
heavy 2: not shown
light: B1 light
notes: as for B4
B18: GpH7-A5/GpH7-B3 variant S298_06M/GpL16-k0 (antibody, human IgG1, kappa)
heavy 1: not shown
heavy 2: not shown
light: B1 light
notes: as for B4

target: T1, FcγRIIb; test: SPR (Biacore), antibody captured, FcγR as analyte; binding as % of GpH7-A5/GpH7-B3/GpL16-k0

| Binder | He/Con_2b |
| --- | --- |
| B1 | 113 % of control |
| B2 | 124 % of control |
| B3 | 110 % of control |

target: T3, FcγRIa (human, UniProt P12314 16-292); test: as above
T3 construct: extracellular domain; also called FcgRI; 1a; not shown: His tag at the C terminus
T3 sequence (P12314 16-292): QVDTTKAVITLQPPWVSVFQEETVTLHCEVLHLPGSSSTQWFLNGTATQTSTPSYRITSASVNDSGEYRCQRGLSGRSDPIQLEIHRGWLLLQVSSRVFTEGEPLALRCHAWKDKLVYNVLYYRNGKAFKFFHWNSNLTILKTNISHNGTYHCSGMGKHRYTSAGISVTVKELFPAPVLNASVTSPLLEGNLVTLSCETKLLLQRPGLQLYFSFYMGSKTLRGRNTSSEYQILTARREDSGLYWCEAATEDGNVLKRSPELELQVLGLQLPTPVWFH

| Binder | He/Con_1a |
| --- | --- |
| B1 | 97.7 % of control |
| B2 | 99.9 % of control |
| B3 | 95.5 % of control |

target: T2, FcγRIIb extracellular domain with …; test: SPR (Biacore), antibody captured on antigen peptide chip, FcγR as analyte; relative binding amount
Procedure: (§1) Analysis of interaction between objective antibody and the FcγR was carried out using Biacore T100 (GE Healthcare). HBS-EP+ (GE Healthcare) was used as the running buffer, and the measurement temperature was set to 25° C. Chips produced by immobilizing the antigen peptide by the amine coupling method to a Series S Sencor Chip CM5 (GE Healthcare), or alternatively, chips produced by allowing preliminarily biotinylated antigen peptides to interact with and immobilize onto a Series S Sensor Chip SA (certified) (GE Healthcare) were used. Antibodies of interest were captured onto an antigen peptide-immobilized chip, and allowed to interact to each FcγR diluted with running buffer. To regenerate and repeatedly use the chip, the antibodies captured on the chip were washed off by reacting 10 mM glycine-HCl, pH 1.5.
(§2) The FcγR-binding activity of each antibody was assessed primarily using as an indicator the FcγR-binding activity and dissociation constant for FcγR.

| Binder | He/Con_2b |
| --- | --- |
| B4 | 116 % of GpH7-A5/GpH7-B3/GpL16-k0 (=100) |
| B5 | 144 % of GpH7-A5/GpH7-B3/GpL16-k0 (=100) |
| B6 | 114 % of GpH7-A5/GpH7-B3/GpL16-k0 (=100) |
| B7 | 116 % of GpH7-A5/GpH7-B3/GpL16-k0 (=100) |
| B8 | 106 % of GpH7-A5/GpH7-B3/GpL16-k0 (=100) |
| B9 | 111 % of GpH7-A5/GpH7-B3/GpL16-k0 (=100) |
| B10 | 119 % of GpH7-A5/GpH7-B3/GpL16-k0 (=100) |
| B11 | 148 % of GpH7-A5/GpH7-B3/GpL16-k0 (=100) |
| B12 | 101 % of GpH7-A5/GpH7-B3/GpL16-k0 (=100) |
| B13 | 103 % of GpH7-A5/GpH7-B3/GpL16-k0 (=100) |
| B14 | 120 % of GpH7-A5/GpH7-B3/GpL16-k0 (=100) |
| B15 | 109 % of GpH7-A5/GpH7-B3/GpL16-k0 (=100) |
| B16 | 104 % of GpH7-A5/GpH7-B3/GpL16-k0 (=100) |
| B17 | 218 % of GpH7-A5/GpH7-B3/GpL16-k0 (=100) |
| B18 | 102 % of GpH7-A5/GpH7-B3/GpL16-k0 (=100) |

target: T4, FcγRIIIa extracellular domain with C-terminal His tag (human, UniProt P08637 17-208); test: as above
T4 construct: extracellular domain; also called FcgRIIIa; 3a; not shown: His tag at the C terminus
Procedure: as §1, §2

T4 sequence (P08637 17-208): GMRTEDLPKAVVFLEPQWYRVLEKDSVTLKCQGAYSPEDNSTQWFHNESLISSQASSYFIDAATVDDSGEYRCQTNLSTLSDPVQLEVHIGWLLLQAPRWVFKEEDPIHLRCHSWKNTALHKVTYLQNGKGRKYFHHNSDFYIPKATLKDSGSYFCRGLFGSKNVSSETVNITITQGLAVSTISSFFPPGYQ

| Binder | He/Con_3a |
| --- | --- |
| B4 | 72.4 % of GpH7-A5/GpH7-B3/GpL16-k0 (=100) |
| B5 | 96.7 % of GpH7-A5/GpH7-B3/GpL16-k0 (=100) |
| B6 | 92.3 % of GpH7-A5/GpH7-B3/GpL16-k0 (=100) |
| B7 | 76.4 % of GpH7-A5/GpH7-B3/GpL16-k0 (=100) |
| B8 | 97.5 % of GpH7-A5/GpH7-B3/GpL16-k0 (=100) |
| B9 | 82.8 % of GpH7-A5/GpH7-B3/GpL16-k0 (=100) |
| B10 | 96.1 % of GpH7-A5/GpH7-B3/GpL16-k0 (=100) |
| B11 | 84.8 % of GpH7-A5/GpH7-B3/GpL16-k0 (=100) |
| B12 | 28 % of GpH7-A5/GpH7-B3/GpL16-k0 (=100) |
| B13 | 71 % of GpH7-A5/GpH7-B3/GpL16-k0 (=100) |
| B14 | 93.1 % of GpH7-A5/GpH7-B3/GpL16-k0 (=100) |
| B15 | 93.6 % of GpH7-A5/GpH7-B3/GpL16-k0 (=100) |
| B16 | 45.6 % of GpH7-A5/GpH7-B3/GpL16-k0 (=100) |
| B17 | 65 % of GpH7-A5/GpH7-B3/GpL16-k0 (=100) |
| B18 | 92.6 % of GpH7-A5/GpH7-B3/GpL16-k0 (=100) |
